Assay results published in patent publication US20230406885A1, “CYCLIC PEPTIDES FOR TRAPPING INTERLEUKIN-1 BETA” (MERCK SHARP & DOHME LLC, priority 2022, published 2023).
*1 amine or outer side, *2 acyl side, *3 side chain or, on linkers, in order; H or OH if unused. [ ]: non-standard residue; d: D form. TyrEtNAc = L-tyrosine O-ethyl acetamide, (S)-3-(4-(2-acetamidoethoxy)phenyl)-2-aminopropanoic acid, CC(=O)NCCOc1ccc(C[C@H](N[*:1])C(=O)[*:2])cc1; Cha44F2 = (S)-2-amino-3-(4,4-difluorocyclohexyl)propanoic acid, O=C([C@H](CC1CCC(F)(F)CC1)N[*:1])[*:2]; Trp(4-Cl)(βS-Me) = C[C@@H](c1c[nH]c2cccc(Cl)c12)[C@H](N)C(=O)O; Pro(trans-4-NH2) = O=C([C@@H]1C[C@@H](N[*:3])CN1[*:1])[*:2]; Bip(4'-COOH) = N[C@@H](Cc1ccc(-c2ccc(C(=O)O)cc2)cc1)C(=O)O; 1Nal(3S-Me) = C[C@@H](c1cccc2ccccc12)[C@H](N)C(=O)O; Phe(4-COOH) = N[C@@H](Cc1ccc(C(=O)O)cc1)C(=O)O; h3Pal(5-CN) = N#Cc1cncc(CC[C@H](N)C(=O)O)c1; Phe(4-NH2) = Nc1ccc(C[C@H](N)C(=O)O)cc1; 1Nal = N[C@@H](Cc1cccc2ccccc12)C(=O)O; hTyr = N[C@@H](CCc1ccc(O)cc1)C(=O)O; 4Pal = N[C@@H](Cc1ccncc1)C(=O)O; Orn = NCCC[C@H](N)C(=O)O; dNMeA = CN[C@H](C)C(=O)O; Dab = NCC[C@H](N)C(=O)O; Nva = CCC[C@H](N)C(=O)O; Dap = NC[C@H](N)C(=O)O; Aib = CC(C)(N)C(=O)O

B1: SEQ ID NO: 134 (Example No. 134) (peptide)
peptide: cyclo([TyrEtNAc]W[Phe(4-COOH)]G[Pro(trans-4-NH2)][Trp(4-Cl)(βS-Me)]D[dNMeA]G[Bip(4'-COOH)][4Pal][Dab][dA][hTyr])
SMILES: CC(=O)NCCOc1ccc(C[C@@H]2NC(=O)[C@H](CCc3ccc(O)cc3)NC(=O)[C@@H](C)NC(=O)[C@H](CCN)NC(=O)[C@H](Cc3ccncc3)NC(=O)[C@H](Cc3ccc(-c4ccc(C(=O)O)cc4)cc3)NC(=O)CNC(=O)[C@@H](C)N(C)C(=O)[C@H](CC(=O)O)NC(=O)[C@H]([C@@H](C)c3c[nH]c4cccc(Cl)c34)NC(=O)[C@@H]3C[C@@H](N)CN3C(=O)CNC(=O)[C@H](Cc3ccc(C(=O)O)cc3)NC(=O)[C@H](Cc3c[nH]c4ccccc34)NC2=O)cc1
B2: SEQ ID NO: 135 (Example No. 135) (peptide)
peptide: cyclo([TyrEtNAc]W[Phe(4-COOH)]G[Pro(trans-4-NH2)][Trp(4-Cl)(βS-Me)]D[dNMeA]G[Bip(4'-COOH)][4Pal]L[dA][hTyr])
SMILES: CC(=O)NCCOc1ccc(C[C@@H]2NC(=O)[C@H](CCc3ccc(O)cc3)NC(=O)[C@@H](C)NC(=O)[C@H](CC(C)C)NC(=O)[C@H](Cc3ccncc3)NC(=O)[C@H](Cc3ccc(-c4ccc(C(=O)O)cc4)cc3)NC(=O)CNC(=O)[C@@H](C)N(C)C(=O)[C@H](CC(=O)O)NC(=O)[C@H]([C@@H](C)c3c[nH]c4cccc(Cl)c34)NC(=O)[C@@H]3C[C@@H](N)CN3C(=O)CNC(=O)[C@H](Cc3ccc(C(=O)O)cc3)NC(=O)[C@H](Cc3c[nH]c4ccccc34)NC2=O)cc1
B3: SEQ ID NO: 132 (Example No. 132) (peptide)
peptide: cyclo([TyrEtNAc]W[Phe(4-COOH)]G[Pro(trans-4-NH2)][Trp(4-Cl)(βS-Me)]D[dNMeA]G[Bip(4'-COOH)][1Nal][Orn][Aib]G)
SMILES: CC(=O)NCCOc1ccc(C[C@@H]2NC(=O)CNC(=O)C(C)(C)NC(=O)[C@H](CCCN)NC(=O)[C@H](Cc3cccc4ccccc34)NC(=O)[C@H](Cc3ccc(-c4ccc(C(=O)O)cc4)cc3)NC(=O)CNC(=O)[C@@H](C)N(C)C(=O)[C@H](CC(=O)O)NC(=O)[C@H]([C@@H](C)c3c[nH]c4cccc(Cl)c34)NC(=O)[C@@H]3C[C@@H](N)CN3C(=O)CNC(=O)[C@H](Cc3ccc(C(=O)O)cc3)NC(=O)[C@H](Cc3c[nH]c4ccccc34)NC2=O)cc1
B4: SEQ ID NO: 133 (Example No. 133) (peptide)
peptide: cyclo([TyrEtNAc]W[Phe(4-COOH)]G[Pro(trans-4-NH2)][Trp(4-Cl)(βS-Me)]D[dNMeA]G[Bip(4'-COOH)][1Nal]S[dA][Phe(4-NH2)])
SMILES: CC(=O)NCCOc1ccc(C[C@@H]2NC(=O)[C@H](Cc3ccc(N)cc3)NC(=O)[C@@H](C)NC(=O)[C@H](CO)NC(=O)[C@H](Cc3cccc4ccccc34)NC(=O)[C@H](Cc3ccc(-c4ccc(C(=O)O)cc4)cc3)NC(=O)CNC(=O)[C@@H](C)N(C)C(=O)[C@H](CC(=O)O)NC(=O)[C@H]([C@@H](C)c3c[nH]c4cccc(Cl)c34)NC(=O)[C@@H]3C[C@@H](N)CN3C(=O)CNC(=O)[C@H](Cc3ccc(C(=O)O)cc3)NC(=O)[C@H](Cc3c[nH]c4ccccc34)NC2=O)cc1
B5: SEQ ID NO: 128 (Example No. 128) (peptide)
peptide: cyclo([TyrEtNAc]W[Phe(4-COOH)]G[Pro(trans-4-NH2)][1Nal(3S-Me)]D[dNMeA]G[Bip(4'-COOH)]WS[dA][hTyr])
SMILES: CC(=O)NCCOc1ccc(C[C@@H]2NC(=O)[C@H](CCc3ccc(O)cc3)NC(=O)[C@@H](C)NC(=O)[C@H](CO)NC(=O)[C@H](Cc3c[nH]c4ccccc34)NC(=O)[C@H](Cc3ccc(-c4ccc(C(=O)O)cc4)cc3)NC(=O)CNC(=O)[C@@H](C)N(C)C(=O)[C@H](CC(=O)O)NC(=O)[C@H]([C@@H](C)c3cccc4ccccc34)NC(=O)[C@@H]3C[C@@H](N)CN3C(=O)CNC(=O)[C@H](Cc3ccc(C(=O)O)cc3)NC(=O)[C@H](Cc3c[nH]c4ccccc34)NC2=O)cc1
B6: SEQ ID NO: 129 (Example No. 129) (peptide)
peptide: cyclo([TyrEtNAc]W[Phe(4-COOH)]G[Pro(trans-4-NH2)][1Nal(3S-Me)]N[dNMeA]G[Bip(4'-COOH)]W[Dap][dA][hTyr])
SMILES: CC(=O)NCCOc1ccc(C[C@@H]2NC(=O)[C@H](CCc3ccc(O)cc3)NC(=O)[C@@H](C)NC(=O)[C@H](CN)NC(=O)[C@H](Cc3c[nH]c4ccccc34)NC(=O)[C@H](Cc3ccc(-c4ccc(C(=O)O)cc4)cc3)NC(=O)CNC(=O)[C@@H](C)N(C)C(=O)[C@H](CC(N)=O)NC(=O)[C@H]([C@@H](C)c3cccc4ccccc34)NC(=O)[C@@H]3C[C@@H](N)CN3C(=O)CNC(=O)[C@H](Cc3ccc(C(=O)O)cc3)NC(=O)[C@H](Cc3c[nH]c4ccccc34)NC2=O)cc1
B7: SEQ ID NO: 131 (Example No. 131) (peptide)
peptide: cyclo([TyrEtNAc]W[Phe(4-COOH)]G[Pro(trans-4-NH2)][Trp(4-Cl)(βS-Me)]D[dNMeA]G[Bip(4'-COOH)][1Nal]L[dA][hTyr])
SMILES: CC(=O)NCCOc1ccc(C[C@@H]2NC(=O)[C@H](CCc3ccc(O)cc3)NC(=O)[C@@H](C)NC(=O)[C@H](CC(C)C)NC(=O)[C@H](Cc3cccc4ccccc34)NC(=O)[C@H](Cc3ccc(-c4ccc(C(=O)O)cc4)cc3)NC(=O)CNC(=O)[C@@H](C)N(C)C(=O)[C@H](CC(=O)O)NC(=O)[C@H]([C@@H](C)c3c[nH]c4cccc(Cl)c34)NC(=O)[C@@H]3C[C@@H](N)CN3C(=O)CNC(=O)[C@H](Cc3ccc(C(=O)O)cc3)NC(=O)[C@H](Cc3c[nH]c4ccccc34)NC2=O)cc1
B8: SEQ ID NO: 136 (Example No. 136) (peptide)
peptide: cyclo([TyrEtNAc]W[Phe(4-COOH)]G[Pro(trans-4-NH2)][Trp(4-Cl)(βS-Me)]D[dNMeA]G[Bip(4'-COOH)][4Pal][Nva][dA][Cha44F2])
SMILES: CCC[C@@H]1NC(=O)[C@H](Cc2ccncc2)NC(=O)[C@H](Cc2ccc(-c3ccc(C(=O)O)cc3)cc2)NC(=O)CNC(=O)[C@@H](C)N(C)C(=O)[C@H](CC(=O)O)NC(=O)[C@H]([C@@H](C)c2c[nH]c3cccc(Cl)c23)NC(=O)[C@@H]2C[C@@H](N)CN2C(=O)CNC(=O)[C@H](Cc2ccc(C(=O)O)cc2)NC(=O)[C@H](Cc2c[nH]c3ccccc23)NC(=O)[C@H](Cc2ccc(OCCNC(C)=O)cc2)NC(=O)[C@H](CC2CCC(F)(F)CC2)NC(=O)[C@@H](C)NC1=O
B9: SEQ ID NO: 130 (Example No. 130) (peptide)
peptide: cyclo([TyrEtNAc]W[Phe(4-COOH)]G[Pro(trans-4-NH2)][Trp(4-Cl)(βS-Me)]D[dNMeA]G[Bip(4'-COOH)][1Nal][Dap][Aib][h3Pal(5-CN)])
SMILES: CC(=O)NCCOc1ccc(C[C@@H]2NC(=O)[C@H](CCc3cncc(C#N)c3)NC(=O)C(C)(C)NC(=O)[C@H](CN)NC(=O)[C@H](Cc3cccc4ccccc34)NC(=O)[C@H](Cc3ccc(-c4ccc(C(=O)O)cc4)cc3)NC(=O)CNC(=O)[C@@H](C)N(C)C(=O)[C@H](CC(=O)O)NC(=O)[C@H]([C@@H](C)c3c[nH]c4cccc(Cl)c34)NC(=O)[C@@H]3C[C@@H](N)CN3C(=O)CNC(=O)[C@H](Cc3ccc(C(=O)O)cc3)NC(=O)[C@H](Cc3c[nH]c4ccccc34)NC2=O)cc1

The binders below were run against Recombinant human IL-1β (BioLegend 579404) (human, UniProt P01584 117-269) (assay: cell-based or functional assay).

Row | MRC5 IC50 | Binder
1 | 378 pM | B1
2 | 310 pM | B2
3 | 370 pM | B3
4 | 766 pM | B4
5 | 90 pM | B5
6 | 82.8 pM | B6
7 | 49.8 pM | B7
8 | 396 pM | B8
9 | 114 pM | B9
